Biological target: T1, Rv1272c from Mycobacterium tuberculosis (Mycobacterium tuberculosis (Mtb) H37Rv, UniProt P9WQJ3 1-631)
T1 construct: also called subunit of Rv1273c/72c; not shown: Flag, C-terminal, kept
T1 sequence: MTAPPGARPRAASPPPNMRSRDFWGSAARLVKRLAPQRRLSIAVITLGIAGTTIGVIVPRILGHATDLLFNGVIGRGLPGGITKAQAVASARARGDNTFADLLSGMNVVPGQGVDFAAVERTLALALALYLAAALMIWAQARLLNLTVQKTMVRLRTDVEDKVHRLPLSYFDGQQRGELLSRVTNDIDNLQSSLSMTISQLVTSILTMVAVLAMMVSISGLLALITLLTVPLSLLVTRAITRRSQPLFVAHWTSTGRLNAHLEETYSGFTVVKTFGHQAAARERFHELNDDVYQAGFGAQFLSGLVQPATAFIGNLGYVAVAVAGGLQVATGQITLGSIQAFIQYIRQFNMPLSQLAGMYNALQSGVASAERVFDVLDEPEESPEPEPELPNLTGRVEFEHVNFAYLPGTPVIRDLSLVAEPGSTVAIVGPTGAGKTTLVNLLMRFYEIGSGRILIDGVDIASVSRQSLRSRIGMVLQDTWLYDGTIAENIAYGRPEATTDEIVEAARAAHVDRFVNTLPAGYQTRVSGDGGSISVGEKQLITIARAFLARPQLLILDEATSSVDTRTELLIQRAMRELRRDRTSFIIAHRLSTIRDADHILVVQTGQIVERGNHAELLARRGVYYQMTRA
Test: SEC
Conditions: both partners purified

B1: Rv1273c from Mycobacterium tuberculosis (natural protein)
chain: MLLALLRQHIRPYRRLVAMLMMLQLVSTLASLYLPTVNAAIVDDGVAKGDTATIVRLGAVMLGVTGLQVLCAIGAVYLGSRTGAGFGRDLRSAMFEHIITFSERETARFGAPTLLTRSTNDVRQILFLVQMTATVLVTAPIMCVGGIIMAIHQEAALTWLLLVSVPILAVANYWIISHMLPLFRRMQSLIDGINRVMRDQLSGVRVVRAFTREGYERDKFAQANTALSNAALSAGNWQALMLPVTTLTINASSVALIWFGGLRIDSGQMQVGSLIAFLSYFAQILMAVLMATMTLAVLPRASVCAERITEVLSTPAALGNPDNPKFPTDGVTGVVRLAGATFTYPGADCPVLQDISLTARPGTTTAIVGSTGSGKSTLVSLICRLYDVTAGAVLVDGIDVREYHTERLWSAIGLVPQRSYLFSGTVADNLRYGGGPDQVVTEQEMWEALRVAAADGFVQTDGLQTRVAQGGVNFSGGQRQRLAIARAVIRRPAIYVFDDAFSALDVHTDAKVHASLRQVSGDATIIVVTQRISNAAQADQVIVVDNGKIVGTGTHETLLADCPTYAEFAASQSLSATVGGVG
notes: also called subunit of Rv1273c/72c
stoichiometry N: 1
